In data set [1] the target is T1, HUM 19A (synthetic).
T1 chain: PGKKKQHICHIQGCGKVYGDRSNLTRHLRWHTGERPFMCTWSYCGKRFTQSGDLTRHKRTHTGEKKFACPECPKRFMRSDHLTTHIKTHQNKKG
The data set is described as follows: EMSA. The settings on record: tags: MBP fusion (pMal-c2), SP1 backbone.

Data set [2] deals with T2, VOP 32B-7 (VZ+434b, mVZ+426) (synthetic).
T2 chain: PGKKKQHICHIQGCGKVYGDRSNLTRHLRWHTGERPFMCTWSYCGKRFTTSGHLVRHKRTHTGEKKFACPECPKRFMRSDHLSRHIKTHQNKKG
As to the kind of experiment: EMSA; upper bound; 10 mM Tris, 100 mM KCl, 1 mM MgCl2, 0.01 mM ZnCl2. The settings on record: tags: MBP fusion (pMal-c2), SP1 backbone. The protocol:
(§1) A three-fold dilution series of each protein was tested for binding to its DNA target (SEQ ID NOS:207, 144, 240, and 141, respectively), with the highest concentration in lane 10 and the lowest concentration in lane 2. Lane 1 contains probe alone.
(§2) Binding studies. Binding studies were performed essentially as described (Liu, et al. (2001) J. Biol. Chem. 276: 11,323-11,334), except that the buffer was modified to the following final composition: 10 mM Tris, 100 mM KCl, 1 mM MgCl₂, 10 mM DTT, 0.01 mM ZnCl₂, 10% glycerol, 200 μg/ml bovine serum albumin, 0.02% IGEPAL.
(§3) Genes for our ZFPs were assembled (see experimental procedures) and each protein was expressed and purified essentially as described (Liu et. al., 2001, supra; and Zhang et. al., supra). We then characterized the DNA-binding affinity of each ZFP using a gel shift assay. Procedures for these studies were essentially identical to those described previously (Liu et. al., 2001, supra; and Zhang et. al., supra) except for the use of a modified binding buffer.
For orientation: A gel shift assay detects complexes by their altered migration in electrophoresis.

The target of data set [3] is T2, VOP 32B-7 (VZ+434b, mVZ+426). The data set is described as follows: EMSA; 170 mM KCl, 1.7 mM MgCl2, Zn. As to conditions: tags: MBP fusion (pMal-c2), SP1 backbone. On the procedure: (§4) Binding studies were performed essentially as described (Zhang et al., supra; WO 00/41566; and WO 00/42219) except that the binding reactions contained 10 pM of labeled target site and the buffer composition was as follows: 17 mM Tris, 170 mM KCl, 1.7 mM MgCl2, 3.5 mM DTT, 0.01-0.033 mM ZnCl2, 15% glycerol, 300 μg/ml bovine serum albumin, 0.03% IGEPAL. In addition, ZFP concentrations for these studies were determined directly by measuring the DNA-binding activity of each ZFP preparation using conditions under which binding is essentially stoichiometric (ZFP and target site concentrations of >100 nM).

Data set [4] addresses VOP 30A-4 (VZ+42/+530, mVZ+509) (synthetic). As to the kind of experiment: EMSA; upper bound; 10 mM Tris, 100 mM KCl, 1 mM MgCl2, 0.01 mM ZnCl2. As to conditions: tags: MBP fusion (pMal-c2), SP1 backbone. On the procedure:
as §1, §2, §3

Data set [5] addresses VEGF 1B (synthetic, UniProt P08047). As to the kind of experiment: EMSA. The settings on record: tags: MBP fusion (pMal-c2), SP1 backbone.
For data set [6], the target named is T3, PDF 5A (VZ+590) (synthetic).
T3 chain: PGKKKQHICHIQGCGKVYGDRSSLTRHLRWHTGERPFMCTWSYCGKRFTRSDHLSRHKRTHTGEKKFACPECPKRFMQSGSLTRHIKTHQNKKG
As to the kind of experiment: EMSA; 170 mM KCl, 1.7 mM MgCl2, Zn. As to conditions: tags: MBP fusion (pMal-c2), SP1 backbone. The protocol: as §4

Data set [7] has as its target T2, VOP 32B-7 (VZ+434b, mVZ+426). The data set is described as follows: EMSA. As to conditions: tags: MBP fusion (pMal-c2), SP1 backbone.
For data set [8], the target named is T4, VOP 32A-6 (VZ+434a) (synthetic).
T4 chain: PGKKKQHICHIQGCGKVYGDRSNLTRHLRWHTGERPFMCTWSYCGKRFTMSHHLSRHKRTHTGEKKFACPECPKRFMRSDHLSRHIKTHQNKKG
As to the kind of experiment: EMSA. The settings on record: tags: MBP fusion (pMal-c2), SP1 backbone.

In data set [9] the target is T5, VOP 32B-VP16 (VZ+434b-VP16) (synthetic).
T5 chain: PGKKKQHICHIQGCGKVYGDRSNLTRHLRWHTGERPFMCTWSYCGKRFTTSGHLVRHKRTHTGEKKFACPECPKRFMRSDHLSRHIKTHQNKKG
The data set is described as follows: cell_activity; endogenous VEGF-A in HEK 293.

Data set [10] has as its target T6, BVO 13A (synthetic).
T6 chain: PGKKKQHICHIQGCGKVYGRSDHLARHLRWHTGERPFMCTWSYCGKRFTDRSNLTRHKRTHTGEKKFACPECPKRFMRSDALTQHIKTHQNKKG
The data set is described as follows: EMSA. The settings on record: tags: MBP fusion (pMal-c2), SP1 backbone.

Data set [11] concerns the target T7, MX1E (synthetic).
T7 chain: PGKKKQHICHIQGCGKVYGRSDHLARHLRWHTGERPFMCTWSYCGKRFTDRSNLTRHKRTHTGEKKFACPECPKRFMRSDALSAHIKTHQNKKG
As to the kind of experiment: EMSA. As to conditions: tags: MBP fusion (pMal-c2), SP1 backbone.

Data set [12] has as its target T8, SP1 zinc finger domain (UniProt P08047 SEQ:1-94). As to the kind of experiment: EMSA; 100 mM KCl, 1 mM MgCl2, Zn. The protocol:
as §2, §3

Data set [13] addresses T8, SP1 zinc finger domain. As to the kind of experiment: EMSA; 170 mM KCl, 1.7 mM MgCl2, Zn. On the procedure:
as §4

The target in data set [14] is T9, VOP 29A-3 (synthetic).
T9 chain: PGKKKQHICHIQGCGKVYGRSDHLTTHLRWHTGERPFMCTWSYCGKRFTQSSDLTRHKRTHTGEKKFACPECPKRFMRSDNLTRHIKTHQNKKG
The data set is described as follows: EMSA. The settings on record: tags: MBP fusion (pMal-c2), SP1 backbone.

In data set [15] the target is MTS 5A (synthetic, UniProt P08047). As to the kind of experiment: EMSA. The settings on record: tags: MBP fusion (pMal-c2), SP1 backbone.
Chain of MTS 5A (P08047 other isoform, or with tags, fused parts or gaps): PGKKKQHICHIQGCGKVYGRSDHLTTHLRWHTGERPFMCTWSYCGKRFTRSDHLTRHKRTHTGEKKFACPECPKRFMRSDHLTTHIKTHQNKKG
Data set [16] has as its target VOP 28A-2 (synthetic). The data set is described as follows: EMSA. The settings on record: tags: MBP fusion (pMal-c2), SP1 backbone.
Data set [17] has as its target T10, VZ-950 (synthetic).
T10 chain: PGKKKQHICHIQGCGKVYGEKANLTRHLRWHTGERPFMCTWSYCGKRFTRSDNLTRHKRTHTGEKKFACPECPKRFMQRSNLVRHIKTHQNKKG
As to the kind of experiment: EMSA; 170 mM KCl, 1.7 mM MgCl2, Zn. The settings on record: tags: MBP fusion (pMal-c2), SP1 backbone. On the procedure: as §4

The target in data set [18] is VOP 35A-10 (VZ+892) (synthetic). As to the kind of experiment: EMSA; Table 6 gives 0.24 nM for same helices (VZ+892). As to conditions: tags: MBP fusion (pMal-c2), SP1 backbone.
Chain of VOP 35A-10 (VZ+892) (synthetic) (chain, as listed by the source): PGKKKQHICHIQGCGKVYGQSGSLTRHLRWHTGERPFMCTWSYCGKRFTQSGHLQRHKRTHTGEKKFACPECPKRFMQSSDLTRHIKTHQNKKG
Data set [19] deals with USX 3A (synthetic). As to the kind of experiment: EMSA. The settings on record: tags: MBP fusion (pMal-c2), SP1 backbone.
For data set [20], the target named is ZEN-7A 1 (VZ-573) (synthetic, UniProt P08047). The data set is described as follows: EMSA; 170 mM KCl, 1.7 mM MgCl2, Zn. The settings on record: tags: MBP fusion (pMal-c2), SP1 backbone. The protocol: as §4
Chain of ZEN-7A 1 (VZ-573) (P08047 other isoform, or with tags, fused parts or gaps): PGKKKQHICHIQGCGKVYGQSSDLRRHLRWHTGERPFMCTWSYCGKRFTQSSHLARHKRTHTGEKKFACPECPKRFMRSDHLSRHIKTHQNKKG
In data set [21] the target is VOP 35A-10 (VZ+892) (synthetic). The data set is described as follows: EMSA; 170 mM KCl, 1.7 mM MgCl2, Zn. As to conditions: tags: MBP fusion (pMal-c2), SP1 backbone. The protocol:
as §4

Data set [22] deals with VOP 30A-4 (VZ+42/+530, mVZ+509) (synthetic). The data set is described as follows: EMSA. The settings on record: tags: MBP fusion (pMal-c2), SP1 backbone.
Chain of VOP 30A-4 (VZ+42/+530, mVZ+509) (synthetic) (chain, as listed by the source): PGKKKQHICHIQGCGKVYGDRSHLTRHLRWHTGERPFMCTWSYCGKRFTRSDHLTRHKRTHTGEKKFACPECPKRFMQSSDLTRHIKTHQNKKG
For data set [23], the target named is T11, HUM 17A (VZ+472) (synthetic).
T11 chain: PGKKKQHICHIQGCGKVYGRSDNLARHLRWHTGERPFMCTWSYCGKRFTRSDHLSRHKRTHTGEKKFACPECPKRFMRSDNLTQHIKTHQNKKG
The data set is described as follows: EMSA; 17 mM Tris, 170 mM KCl, 1.7 mM MgCl2, Zn. The settings on record: tags: MBP fusion (pMal-c2), SP1 backbone. The protocol:
as §4

In data set [24] the target is VG 8A (VZ-475) (synthetic). As to the kind of experiment: EMSA; 170 mM KCl, 1.7 mM MgCl2, Zn. As to conditions: tags: MBP fusion (pMal-c2), SP1 backbone. The protocol: as §4
Chain of VG 8A (VZ-475) (synthetic) (chain, as listed by the source): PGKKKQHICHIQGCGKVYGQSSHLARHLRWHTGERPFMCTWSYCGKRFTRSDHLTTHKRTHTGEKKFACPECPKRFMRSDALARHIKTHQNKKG
Data set [25] addresses T12, VEGF 1 (VZ-8) (synthetic, UniProt P08047).
T12 chain: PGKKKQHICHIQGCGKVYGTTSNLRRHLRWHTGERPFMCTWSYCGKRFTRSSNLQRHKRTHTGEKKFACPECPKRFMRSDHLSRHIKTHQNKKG
As to the kind of experiment: EMSA; 170 mM KCl, 1.7 mM MgCl2, Zn. The settings on record: tags: MBP fusion (pMal-c2), SP1 backbone. On the procedure:
as §4

Where only a bound is given, the exact number is not on record here.

T8 sequence (P08047 620-713): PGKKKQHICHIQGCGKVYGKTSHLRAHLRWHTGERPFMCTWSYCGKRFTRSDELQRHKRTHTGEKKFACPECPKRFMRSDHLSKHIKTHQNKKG
Chain of VOP 28A-2 (synthetic) (chain, as listed by the source): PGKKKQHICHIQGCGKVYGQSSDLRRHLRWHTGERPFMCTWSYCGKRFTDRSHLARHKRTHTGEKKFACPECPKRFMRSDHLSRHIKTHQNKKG
Chain of VEGF 1B (P08047 other isoform, or with tags, fused parts or gaps): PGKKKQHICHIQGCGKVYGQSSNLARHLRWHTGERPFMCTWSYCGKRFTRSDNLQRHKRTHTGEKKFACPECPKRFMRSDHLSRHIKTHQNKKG

B1: HUM 19A target (dsDNA)
DNA 1: TGGGCAGAC
DNA 2: GTCTGCCCA
With B1, the Kd in [1] came to 0.02 nM.

B2: VZ+434 / mVZ+426 target (dsDNA)
DNA 1: GGGGGTGACC
DNA 2: GGTCACCCCC
Take B2: the Kd in data set [2] is < 0.01 nM; in [3], < 0.02 nM.

B3: mVZ+509 target (dsDNA)
DNA 1: GCTGGGGGCG
DNA 2: CGCCCCCAGC
For the molecule B3, the Kd in data set [4] was < 0.01 nM.

B4: VEGF 1B target (dsDNA)
DNA 1: GGGGAGGAT
DNA 2: ATCCTCCCC
In turn, B4 had a Kd in [5] of 2 nM.

B5: VZ+590 target (dsDNA)
DNA 1: GCAGGGGCCG
DNA 2: CGGCCCCTGC
As for B5, in data set [6], binding was put at a Kd of 0.23 nM.

B6: VOP 32A/32B target (dsDNA)
DNA 1: GGGGGTGAC
DNA 2: GTCACCCCC
With B6, the Kd in [7] and in [8] was < 0.02 nM throughout. In [9], the activity was 8 fold.

B7: BVO 13A / MX1E target (dsDNA)
DNA 1: ATGGACGGG
DNA 2: CCCGTCCAT
Take B7: the values for the Kd in data set [10] and in [11] were < 0.02 nM and 3.4 nM, respectively.

B8: SP1 target (dsDNA)
DNA 1: GGGGCGGGGG
DNA 2: CCCCCGCCCC
For B8, the results for the Kd in data set [12] and in data set [13] were 0.053 nM and 0.25 nM, respectively.

B9: VOP 29A-3 target (dsDNA)
DNA 1: GAGGCTTGG
DNA 2: CCAAGCCTC
Consider B9, for which, in data set [14], the Kd is < 0.02 nM.

B10: MTS 5A target (dsDNA)
DNA 1: TGGGGGTGG
DNA 2: CCACCCCCA
B10: the equilibrium dissociation constant (Kd) in data set [15] is 0.07 nM.

B11: VOP 28A-2 target (dsDNA)
DNA 1: GGGGGCGCT
DNA 2: AGCGCCCCC
As for B11, the dissociation constant Kd in data set [16] was < 0.02 nM.

B12: VZ-950 target (dsDNA)
DNA 1: GAAGAGGACC
DNA 2: GGTCCTCTTC
B12: in data set [17], the Kd came to 0.18 nM.

B13: VOP 35A-10 target (dsDNA)
DNA 1: GCTGGAGCA
DNA 2: TGCTCCAGC
Turning to B13, the Kd in [18] is < 0.02 nM.

B14: USX 3A target (dsDNA)
DNA 1: GCCGGGGAG
DNA 2: CTCCCCGGC
In data set [19], B14 showed a Kd of 0.06 nM.

B15: VZ-573 target (dsDNA)
DNA 1: GGGGGCGCTC
DNA 2: GAGCGCCCCC
In [20], B15 came in with a Kd of 0.63 nM.

B16: VZ+892 target (dsDNA)
DNA 1: GCTGGAGCAC
DNA 2: GTGCTCCAGC
In [21], B16 showed a Kd of 0.24 nM.

B17: VOP 30A target (dsDNA)
DNA 1: GCTGGGGGC
DNA 2: GCCCCCAGC
B17: the Kd in data set [22] is < 0.02 nM.

B18: VZ+472 target (dsDNA)
DNA 1: AAGGGGGAGG
DNA 2: CCTCCCCCTT
Turning to B18, binding in [23] was put at a Kd of 0.006 nM.

B19: VZ-475 target (dsDNA)
DNA 1: GTGTGGGGTT
DNA 2: AACCCCACAC
B19 came in with a Kd in data set [24] of 0.35 nM.

B20: VZ-8 target (dsDNA)
DNA 1: GGGGAGGATC
DNA 2: GATCCTCCCC
With B20, binding in data set [25] was put at a Kd of 2.83 nM.

What is called Kd is the free concentration of one partner at which half of the binding sites on the other are occupied at equilibrium, for simple one-to-one binding. Low values mean tighter binding, high ones weaker binding.
